Reference: patent US20220064329A1 (Novo Nordisk, published 2022)
Residue numbers refer to the chain shown, from its start.

What was measured:
[1] = target: T1, FVII(a) variant Y118A (human, UniProt P08709 61-466); experiment: SPR, ratio of KD to KD of WT
T1 construct: hFVII alanine variant in cell culture supernatant
T1 sequence: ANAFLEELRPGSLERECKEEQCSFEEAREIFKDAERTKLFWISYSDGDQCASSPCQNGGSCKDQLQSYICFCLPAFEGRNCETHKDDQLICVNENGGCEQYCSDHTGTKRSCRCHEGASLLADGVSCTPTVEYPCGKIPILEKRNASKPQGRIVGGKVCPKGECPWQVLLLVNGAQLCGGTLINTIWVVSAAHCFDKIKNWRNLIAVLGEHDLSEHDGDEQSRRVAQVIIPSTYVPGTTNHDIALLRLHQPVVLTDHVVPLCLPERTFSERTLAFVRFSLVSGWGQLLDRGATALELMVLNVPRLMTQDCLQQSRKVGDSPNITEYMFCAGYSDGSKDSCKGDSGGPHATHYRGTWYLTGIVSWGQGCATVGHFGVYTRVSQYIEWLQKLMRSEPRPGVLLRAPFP

[2] = target: T2, FVII(a) WT (human, UniProt P08709 61-466); experiment: SPR, ratio of KD to KD of WT
T2 construct: also called wild type human FVII(a)
T2 sequence: T1 sequence with A118Y

[3] = target: T3, FVII(a) variant R113A (human, UniProt P08709 61-466); experiment: SPR, ratio of KD to KD of WT
T3 construct: hFVII alanine variant in cell culture supernatant
T3 sequence: T1 sequence with R113A, A118Y

[4] = target: T4, FVII(a) variant E265A (human, UniProt P08709 61-466); experiment: SPR, ratio of KD to KD of WT
T4 construct: hFVII alanine variant in cell culture supernatant
T4 sequence: T1 sequence with A118Y, E265A

[5] = target: T5, FVII(a) variant P251A (human, UniProt P08709 61-466); experiment: SPR, ratio of KD to KD of WT
T5 construct: hFVII alanine variant in cell culture supernatant
T5 sequence: T1 sequence with A118Y, P251A

[6] = target: T4, FVII(a) variant E265A; experiment: SPR, Biacore T200, 25 C; FVII(a) variant captured on anti-Gla Ab 4F6, mAb0842(OA) injected
Experimental: The running buffer was prepared by diluting 10-fold the 10×HBS-P buffer (supplied by GE Healthcare) and supplemented with 1 mg/ml BSA and 5 mM CaCl2 to give 10 mM HEPES, 150 mM NaCl, 0.05% v/v Polysorbate 20, pH 7.4, 5 mM CaCl2, 1 mg/ml bovine serum albumin (BSA). […] Regeneration of the chip was achieved using 10 mM HEPES, 150 mM NaCl, 20 mM EDTA, 0.05 v/v Polysorbate 20, pH 7.4. Binding data were analysed according to a 1:1 Kinetic model and steady state analysis using BiaEvaluation 4.1 supplied by the manufacturer (Biacore AB, Uppsala, Sweden). Wherever possible, ka, kd and KD values from 1:1 kinetic fitting model are reported. […] An amino acid residue is considered a hot-spot residue if substitution of that amino acid residue with alanine results in an affinity reduction of ten (10) fold or more relative to the wild type.

B1: mAb0842(OA) (antibody, human IgG4 S228P, kappa)
heavy: QVQLQESGPGLVKPSQTLSLTCTVSGYSISSDSAWSWIRQPPGKGLEWIGYIQYSGSTNYNPSLKSRVTISRDTSKNQFSLKLSSVTAADTAVYYCARSVNYYGNSFAVGYWGQGTLVTVSSASTKGPSVFPLAPCSRSTSESTAALGCLVKDYFPEPVTVSWNSGALTSGVHTFPAVLQSSGLYSLSSVVTVPSSSLGTKTYTCNVDHKPSNTKVDKRVESKYGPPCPPCPAPEFLGGPSVFLFPPKPKDTLMISRTPEVTCVVVDVSQEDPEVQFNWYVDGVEVHNAKTKPREEQFNSTYRVVSVLTVLHQDWLNGKEYKCKVSNKGLPSSIEKTISKAKGQPREPQVYTLPPSQEEMTKNQVSLSCAVKGFYPSDIAVEWESNGQPENNYKTTPPVLDSDGSFFLVSRLTVDKSRWQEGNVFSCSVMHEALHNHYTQKSLSLSLGK
light: EIVLTQSPATLSLSPGERATLSCRASQGISDYLHWYQQKPGEAPRLLIKYTSQPATGIPARFSGSGSGTDFTLTISSLEPEDFAVYYCQNGHSFPLTFGQGTKLEIKRTVAAPSVFIFPPSDEQLKSGTASVVCLLNNFYPREAKVQWKVDNALQSGNSQESVTEQDSKDSTYSLSSTLTLSKADYEKHKVYACEVTHQGLSSPVTKSFNRGEC
chain: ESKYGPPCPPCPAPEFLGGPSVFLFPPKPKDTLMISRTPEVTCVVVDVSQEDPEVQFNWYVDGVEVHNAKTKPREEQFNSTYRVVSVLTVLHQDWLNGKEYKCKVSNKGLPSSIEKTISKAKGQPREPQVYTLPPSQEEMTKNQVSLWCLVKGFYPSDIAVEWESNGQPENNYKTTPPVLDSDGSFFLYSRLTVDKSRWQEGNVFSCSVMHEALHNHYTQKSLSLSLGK
notes: also called monovalent humanized 11F2 antibody; one-armed anti-FVII(a) antibody
- Fold diff (Variant/WT) [1]: 4.9 fold
- Fold diff (Variant/WT) [2]: 1 fold
- Fold diff (Variant/WT) [3]: 1 fold
- Fold diff (Variant/WT) [4]: 3.2 fold
- Fold diff (Variant/WT) [5]: 2.8 fold
- Kd [6]: 0.98 nM
